T1: mouse GPRC5D (mouse, UniProt Q9JIL6 1-344)
T1 construct: Full length, on stably transfected CHO-K1 cells; also called murineGPRC5D; CHO-K1-murineGPRC5D
T1 sequence: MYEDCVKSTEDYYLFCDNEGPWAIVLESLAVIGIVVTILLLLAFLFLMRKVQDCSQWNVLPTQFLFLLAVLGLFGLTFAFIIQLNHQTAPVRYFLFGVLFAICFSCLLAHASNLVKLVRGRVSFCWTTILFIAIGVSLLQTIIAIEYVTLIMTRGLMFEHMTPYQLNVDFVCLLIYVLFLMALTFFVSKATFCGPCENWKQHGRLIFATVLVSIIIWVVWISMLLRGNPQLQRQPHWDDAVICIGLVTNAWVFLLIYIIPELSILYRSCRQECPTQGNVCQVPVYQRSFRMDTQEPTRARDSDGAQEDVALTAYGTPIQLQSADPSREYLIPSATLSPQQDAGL

T2: monkey GPRC5D (monkey, UniProt Q9NZD1 1-343 (human entry))
T2 construct: Full length, on stably transfected CHO-K1 cells; also called cynoGPRC5D; CHO-K1-cynoGPRC5D
T2 chain: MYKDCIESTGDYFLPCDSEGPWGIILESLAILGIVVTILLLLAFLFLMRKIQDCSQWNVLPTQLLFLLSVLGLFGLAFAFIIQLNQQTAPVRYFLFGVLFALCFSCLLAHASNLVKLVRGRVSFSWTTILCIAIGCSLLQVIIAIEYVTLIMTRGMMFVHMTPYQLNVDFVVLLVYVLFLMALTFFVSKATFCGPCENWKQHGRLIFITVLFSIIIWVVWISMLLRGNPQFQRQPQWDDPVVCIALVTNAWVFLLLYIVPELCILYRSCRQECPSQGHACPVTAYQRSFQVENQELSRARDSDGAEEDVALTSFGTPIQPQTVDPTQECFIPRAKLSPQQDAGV


Experiments:
GPRC5B = molecular target: T3, GPRC5B (human, UniProt Q9NZH0 29-403); assay: FACS on CHO-K1-GPRC5B cells
T3 construct: Full length on CHO-K1 cells; also called RAIG2; Human GPRC5B
T3 sequence (Q9NZH0 29-403 limits assumed): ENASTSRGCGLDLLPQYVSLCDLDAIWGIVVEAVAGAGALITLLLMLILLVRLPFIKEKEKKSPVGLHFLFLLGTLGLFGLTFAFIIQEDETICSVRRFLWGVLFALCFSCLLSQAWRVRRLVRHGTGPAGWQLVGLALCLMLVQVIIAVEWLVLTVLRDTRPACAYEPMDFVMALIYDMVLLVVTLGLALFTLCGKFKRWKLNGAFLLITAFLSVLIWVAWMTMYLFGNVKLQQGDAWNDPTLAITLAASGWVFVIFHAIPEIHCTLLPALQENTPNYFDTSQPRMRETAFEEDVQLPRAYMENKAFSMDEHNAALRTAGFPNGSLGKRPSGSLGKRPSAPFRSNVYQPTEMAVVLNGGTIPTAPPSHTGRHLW

GPRC5A = molecular target: T4, GPRC5A (human, UniProt Q8NFJ5 1-357); assay: FACS on CHO-K1-GPRC5A cells
T4 construct: Full length on CHO-K1 cells; also called RAIG1; Human GPRC5A
T4 sequence (Q8NFJ5 whole entry): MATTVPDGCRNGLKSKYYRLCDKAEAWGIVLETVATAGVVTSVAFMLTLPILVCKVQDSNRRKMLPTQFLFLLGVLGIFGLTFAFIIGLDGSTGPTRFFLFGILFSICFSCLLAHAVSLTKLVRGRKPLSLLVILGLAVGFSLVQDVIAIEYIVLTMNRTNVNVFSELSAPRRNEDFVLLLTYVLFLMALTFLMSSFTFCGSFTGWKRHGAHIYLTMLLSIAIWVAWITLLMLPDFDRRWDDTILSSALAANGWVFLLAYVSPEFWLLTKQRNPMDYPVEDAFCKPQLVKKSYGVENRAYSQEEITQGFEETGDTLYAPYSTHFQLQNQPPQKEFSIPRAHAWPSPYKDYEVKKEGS

GPRC5C = molecular target: T5, GPRC5C (human, UniProt Q9NQ84 24-441); assay: FACS on CHO-K1-GPRC5C cells
T5 construct: Full length on CHO-K1 cells; also called RAIG3; Human GPRC5C
T5 sequence (Q9NQ84 24-441 limits assumed): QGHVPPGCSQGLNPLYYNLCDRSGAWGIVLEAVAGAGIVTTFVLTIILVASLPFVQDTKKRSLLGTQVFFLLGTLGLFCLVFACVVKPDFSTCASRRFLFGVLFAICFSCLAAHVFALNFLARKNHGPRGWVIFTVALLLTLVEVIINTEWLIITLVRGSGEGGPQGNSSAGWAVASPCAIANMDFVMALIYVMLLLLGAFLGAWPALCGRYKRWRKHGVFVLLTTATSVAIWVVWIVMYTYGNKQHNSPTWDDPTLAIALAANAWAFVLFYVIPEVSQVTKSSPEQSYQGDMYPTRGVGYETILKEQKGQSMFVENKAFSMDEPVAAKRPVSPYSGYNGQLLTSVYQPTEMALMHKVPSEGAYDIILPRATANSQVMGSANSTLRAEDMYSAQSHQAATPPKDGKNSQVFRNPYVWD

mouse GPRC5D = molecular target: T1, mouse GPRC5D; assay: FACS on CHO-K1-murineGPRC5D cells
human GPRC5D protein [1] = molecular target: T6, human GPRC5D protein (human, UniProt Q9NZD1 1-345); assay: FACS on CHO-K1-hGPRC5D^hi cells
T6 construct: also called hGPRC5D; CHO-K1-hGPRC5D^hi
T6 sequence (Q9NZD1 whole entry): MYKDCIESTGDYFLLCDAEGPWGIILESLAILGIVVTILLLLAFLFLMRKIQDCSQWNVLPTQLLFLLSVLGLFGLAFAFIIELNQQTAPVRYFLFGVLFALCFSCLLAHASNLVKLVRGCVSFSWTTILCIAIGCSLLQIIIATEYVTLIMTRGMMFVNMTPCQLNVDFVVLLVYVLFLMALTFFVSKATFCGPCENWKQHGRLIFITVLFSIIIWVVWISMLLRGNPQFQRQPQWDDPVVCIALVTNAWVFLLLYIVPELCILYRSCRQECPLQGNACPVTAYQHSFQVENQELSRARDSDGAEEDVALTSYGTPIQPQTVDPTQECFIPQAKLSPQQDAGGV

monkey GPRC5D = molecular target: T2, monkey GPRC5D; assay: FACS on CHO-K1-cynoGPRC5D cells
human GPRC5D protein [2] = molecular target: T6, human GPRC5D protein; assay: FACS on NCI-H929 cells
T cell surface CD3 [3] = molecular target: T7, T cell surface CD3 (human, UniProt P07766 23-207; P04234 22-171; P09693 23-182); assay: FACS on human CD3+ T cells
T7 construct: CD3 is a complex of several chains; also called CD3^+ T cells
T7 sequence (P07766 23-207 limits assumed, chain 1 of 3): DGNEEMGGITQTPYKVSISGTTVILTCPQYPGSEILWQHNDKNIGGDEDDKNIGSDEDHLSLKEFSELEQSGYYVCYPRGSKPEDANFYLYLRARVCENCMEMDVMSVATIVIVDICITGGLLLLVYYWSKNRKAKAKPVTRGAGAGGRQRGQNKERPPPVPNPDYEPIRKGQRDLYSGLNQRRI
T7 sequence (P04234 22-171 limits assumed, chain 2 of 3): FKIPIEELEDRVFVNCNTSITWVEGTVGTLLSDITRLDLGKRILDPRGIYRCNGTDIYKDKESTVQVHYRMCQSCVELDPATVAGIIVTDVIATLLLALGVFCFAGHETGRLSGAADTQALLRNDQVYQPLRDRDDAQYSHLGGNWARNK
T7 sequence (P09693 23-182 limits assumed, chain 3 of 3): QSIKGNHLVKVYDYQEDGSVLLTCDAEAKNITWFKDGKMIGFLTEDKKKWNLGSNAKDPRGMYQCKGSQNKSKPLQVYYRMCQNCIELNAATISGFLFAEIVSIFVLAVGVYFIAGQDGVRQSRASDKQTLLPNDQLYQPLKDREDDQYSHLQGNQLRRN

T cell surface CD3 [4] = molecular target: T7, T cell surface CD3; assay: cell-based or functional assay

Binder	binding result (GPRC5B)	binding result (GPRC5A)	binding result (GPRC5C)	binding result (mouse GPRC5D)	binding result (human GPRC5D protein [1])	binding result (monkey GPRC5D)	binding result (human GPRC5D protein [2])	further results
hu128-v1 (antibody, human IgG1, kappa, V domains shown) VH: EVQLVESGGGLVQPGGSRRVSCAASGFTFSSFGMHWVRQAPGKGLEWVAYISRGSSTIYYADTVKGRFTISRDNAKNSLYLQMNSLRAEDTAVYYCARSGYGSSSYYFDYWGQGTTVTVSS VL: EIVLTQSPATLSASPGERATMSCRASSSIRSSYLHWYQQKPGQSPRLWIYSTSNLASGVPARFSGSGSGTDYTLTISSLEPEDAAVYYCQQFSGYPLTFGGGTKVEIKR							binds	
hu131-v2 (antibody, human IgG1, kappa, V domains shown, Humanized antibody of Chi-131) VH: EVQLVQSGAEVVKPGASVKMSCKASGYTFTNYVMHWVKQAPGQGLEWIGYFNPYNDGTNYNEKFKGRATLTSDTSANTAYMELSSLRSEDTAVYYCARGGVRRYFDVWGQGTTVTVSS VL: DIQMTQSPSSLSASVGDRVTITCRASQDIGSNLNWLQLGPGGAIKRLIYATFSLDSGVPSRFSGSRSGSDYTLTISSLQPEDFVDYYCQQYANFPPTFGGGTKVEIKR							binds	
hu131-v4 (antibody, human IgG1, kappa, V domains shown, Humanized antibody of Chi-131) VH: EVQLVQSGAEVVKPGASVKMSCKASGYTFTNYVMHWVKQAPGQGLEWIGYFNPYNEGTNYNEKFKGRATLTSDTSANTAYMELSSLRSEDTAVYYCARGGVRRYFDVWGQGTTVTVSS VL: DIQMTQSPSSLSASVGDRVTITCRASQDIGSNLNWLQLGPGGAIKRLIYATFSLDSGVPSRFSGSRSGSDYTLTISSLQPEDFVDYYCQQYANFPPTFGGGTKVEIKR							binds	
Talquetamab (bispecific antibody, human IgG4 S228P, kappa, lambda, F234A L235A, Four polypeptide chains; also called benchmark; BM) heavy 1: not shown light 1: DIQMTQSPSSLSASVGDRVTITCKASQNVATHVGWYQQKPGKAPKRLIYSASYRYSGVPSRFSGSGSGTEFTLTISNLQPEDFATYYCQQYNRYPYTFGQGTKLEIKRTVAAPSVFIFPPSDEQLKSGTASVVCLLNNFYPREAKVQWKVDNALQSGNSQESVTEQDSKDSTYSLSSTLTLSKADYEKHKVYACEVTHQGLSSPVTKSFNRGEC heavy 2: EVQLVESGGGLVQPGGSLRLSCAASGFTFNTYAMNWVRQAPGKGLEWVARIRSKYNNYATYYAASVKGRFTISRDDSKNSLYLQMNSLKTEDTAVYYCARHGNFGNSYVSWFAYWGQGTLVTVSSASTKGPSVFPLAPCSRSTSESTAALGCLVKDYFPEPVTVSWNSGALTSGVHTFPAVLQSSGLYSLSSVVTVPSSSLGTKTYTCNVDHKPSNTKVDKRVESKYGPPCPPCPAPEAAGGPSVFLFPPKPKDTLMISRTPEVTCVVVDVSQEDPEVQFNWYVDGVEVHNAKTKPREEQFNSTYRVVSVLTVLHQDWLNGKEYKCKVSNKGLPSSIEKTISKAKGQPREPQVYTLPPSQEEMTKNQVSLTCLVKGFYPSDIAVEWESNGQPENNYKTTPPVLDSDGSFLLYSKLTVDKSRWQEGNVFSCSVMHEALHNHYTQKSLSLSLGK light 2: QTVVTQEPSLTVSPGGTVTLTCRSSTGAVTTSNYANWVQQKPGQAPRGLIGGTNKRAPGTPARFSGSLLGGKAALTLSGVQPEDEAEYYCALWYSNLWVFGGGTKLTVLGQPKAAPSVTLFPPSSEELQANKATLVCLISDFYPGAVTVAWKADSSPVKAGVETTTPSKQSNNKYAASSYLSLTPEQWKSHRSYSCQVTHEGSTVEKTVAPTECS								EC50 (T cell surface CD3 [3]): 5.35 nM; Top(MFI) (T cell surface CD3 [3]): 155000 MFI; CD25/CD4 EC50(nM), activation of T cells in the presence of MM.1S (T cell surface CD3 [4]): 0.0637 nM; CD25/CD8 EC50(nM), activation of T cells in the presence of MM.1S (T cell surface CD3 [4]): 0.0592 nM; CD69/CD4 EC50(nM), activation of T cells in the presence of MM.1S (T cell surface CD3 [4]): 0.046 nM; CD69/CD8 EC50(nM), activation of T cells in the presence of MM.1S (T cell surface CD3 [4]): 0.0329 nM

Further lines, with some results ahead:

binding result (GPRC5B)	binding result (GPRC5A)	binding result (GPRC5C)	binding result (mouse GPRC5D)	binding result (human GPRC5D protein [1])	binding result (monkey GPRC5D)	binding result (human GPRC5D protein [2])	Binder	further results
no binding (tested: 4.1-3000 ng/mL)	no binding (tested: 4.1-3000 ng/mL)	no binding (tested: 4.1-3000 ng/mL)	binds	binds	binds		Chi-128 (antibody, human IgG1, kappa, V domains shown, Human-mouse chimeric antibody, human IgG1 heavy chain constant region and Kappa light chain constant region) VH: DVQLVESGGGLVQPGGSRKVSCAASGFTFSSFGMHWVRQAPEKGLEWVAYISRGSSTIYYADTVKGRFTISRDNPKNTLFLQMTSLRSEDTAMYYCARSGYGSSSYYFDYWGQGTTLTVSS VL: ENVLTQSPAIMSASPREKVTMTCRASSSIRSSYLHWYQQKSGASPKLWIYSTSNLASGVPARFSGSGSGTSYSLTISSVEAEDAATYYCQQFSGYPLTFGGGTKLEIKR	
no binding (tested: 4.1-3000 ng/mL)	no binding (tested: 4.1-3000 ng/mL)	no binding (tested: 4.1-3000 ng/mL)	binds	binds	binds		Chi-131 (antibody, human IgG1, kappa, V domains shown, Human-mouse chimeric antibody, human IgG1 heavy chain constant region and Kappa light chain constant region; also called chimeric antibody Chi-131) VH: EVQLQQSGPELVKPGASVKMSCKASGYTFTNYVMHWVKQKPGQGLEWIGYFNPYNDGTNYNEKFKGKATLTSDKSSNTAYMELSSLTSEDSAVYYCARGGVRRYFDVWGAGTTVTVSS VL: DIQMTQSPSSLSASLGERVSLTCRASQDIGSNLNWLQLGPDGTIKRLIYATFSLDSGVPKRFSGSRSGSDYSLTISSLESEDFVDYYCQQYANFPPTFGGGTKLEIKR	
						binds	hu131-v1 (antibody, human IgG1, kappa, V domains shown, Humanized antibody of Chi-131) VH: EVQLVQSGAEVVKPGASVKMSCKASGYTFTNYVMHWVKQAPGQGLEWMGYFNPYNDGTNYNEKFKGRVTLTSDTSANTAYMELSSLRSEDTAVYYCARGGVRRYFDVWGQGTTVTVSS VL: DIQMTQSPSSLSASVGDRVTITCRASQDIGSNLNWLQLGPGGAIKRLIYATFSLDSGVPSRFSGSRSGSDYTLTISSLQPEDFVDYYCQQYANFPPTFGGGTKVEIKR	
						binds	hu131-v3 (antibody, human IgG1, kappa, V domains shown, Humanized antibody of Chi-131) VH: EVQLVQSGAEVVKPGASVKMSCKASGYTFTNYVMHWVKQAPGQGLEWIGYFNPYNDATNYNEKFKGRATLTSDTSANTAYMELSSLRSEDTAVYYCARGGVRRYFDVWGQGTTVTVSS VL: DIQMTQSPSSLSASVGDRVTITCRASQDIGSNLNWLQLGPGGAIKRLIYATFSLDSGVPSRFSGSRSGSDYTLTISSLQPEDFVDYYCQQYANFPPTFGGGTKVEIKR	
no binding (tested: 4.1-3000 ng/mL)	no binding (tested: 4.1-3000 ng/mL)	no binding (tested: 4.1-3000 ng/mL)	binds	binds	binds		Chi-89 (antibody, human IgG1, kappa, V domains shown, Human-mouse chimeric antibody, human IgG1 heavy chain constant region and Kappa light chain constant region; also called chimeric antibody Chi-89) VH: EVQLVESGGDLVKPGGSLKLSCAASGFTFSSYGMSWVRQTPDKRLEWVATISSGGSYTYYPDSVKGRFTFSRDNAKNTLYLQMSSLKSEDTAMYYCVRQALRYHMDSWGQGTSVTVSS VL: DIVMTQSQKFMSTSVGDRVSVTCKASQNVGTNVAWYQQKPGQSPKALIYSASYRYSGVPDRFTGSGSGTDFTLTISNVQSEDLADFFCQQYYSYPWTFGGGTKLEIKR	
no binding (tested: 4.1-3000 ng/mL)	no binding (tested: 4.1-3000 ng/mL)	no binding (tested: 4.1-3000 ng/mL)		binds	binds		Chi-105 (antibody, human IgG1, kappa, V domains shown, Human-mouse chimeric antibody, human IgG1 heavy chain constant region and Kappa light chain constant region) VH: EVQLQQSGPELVKPGASVKMSCKASGYTFTDYYMNWVKQSHGKSLEWIGYIYPNNGGTGYNQRFKGKATLTADKSSSTAYMELRSLTSEDSAVYYCARWGGTRLGYYAMDYWGQGTSVTVSS VL: DIVMTQSQKFMSTSVGDRVSVTCKASQNVGTNVVWYQQKPGQSPKLLIYWASTRHTGVPDRFTGSGSGTDFTLTISNVQSEDLADYFCQQYSRYPYTFGGGTKLEIKR	
no binding (tested: 4.1-3000 ng/mL)	no binding (tested: 4.1-3000 ng/mL)	no binding (tested: 4.1-3000 ng/mL)	binds	binds	binds		Chi-169 (antibody, human IgG1, kappa, V domains shown, Human-mouse chimeric antibody, human IgG1 heavy chain constant region and Kappa light chain constant region; also called chimeric antibody Chi-169) VH: EVKLVESGGGLVKPGASLKLSCAASGFTFSNYGMSWVRQTSDKRLEWVASISSGGGRIYYPDNVKGRFTISRENAKNTLYLQMSSLKSEDTALYYCTRHAMDNWGQGTSVIVSS VL: QIVLTQSPAIMSASPGEKVTMTCSASSSVSNMYWYQQKSGTSPKRWIYDTSKLASGVPARFSGSGSGTSYSLTISSMEAEDASTYYCQQWSSNPLTFGAGTTLELKR	
